Experimental data as given in patent US20240100180A1.

Experiments:
[1] = target: CLDN18.2 of healthy mouse stomach (mouse) (UniProt P56857); assay: flow cytometry, live cells of healthy mouse stomach, mouse 1, antibody 4 µg/ml
[2] = target: CLDN18.2 of healthy mouse stomach (mouse) (UniProt P56857); assay: flow cytometry, live cells of healthy mouse stomach, mouse 2, antibody 4 µg/ml
[3] = target: CLDN18.2 of healthy mouse stomach (mouse) (UniProt P56857); assay: flow cytometry, live cells of healthy mouse stomach, average of two mice

- % of positive healthy stomach cells [1]: 0.4%
- % of positive healthy stomach cells [2]: 0.3%
- % of positive healthy stomach cells [3]: 0.35%
B1: cCl1-1 (antibody, V domains shown)
VH: QIQLVQSGPELKKPGESVKISCKASGYTFTDYAMHWVKQAPGKGLKWMGWINTYTGKPTYADDFKGRFVFSLEASASTANLQISNLKNEDTATYFCARAVFYGYTMDAWGQGTSVTVSS
VL: DIQMTQSPASLSASLGETISIACRASEDIYSNLAWYQQKSGKSPQLLIFSVKRLQDGVPSRFSGSGSGTQYSLKISGMQPEDEGDYFCLQGSNFPLTFGSGTKLEIK
